{
  "source": "the supplement of paper PMC11316812",
  "key": {"[1]": {"test_system": "MCF7", "assay": "percentage of EdU-negative (G0-arrested) nuclei per well, 72 h; higher = more G0 arrest", "settings": "reference: sequence is the full UniProt precursor, the tested protein was the secreted form or ectodomain"}, "[2]": {"test_system": "hTERT-HMEC", "assay": "percentage of EdU-negative (G0-arrested) nuclei per well, 72 h; higher = more G0 arrest", "settings": "reference: sequence is the full UniProt precursor, the tested protein was the secreted form or ectodomain"}, "[3]": {"settings": "protein concentration 0.0225 µM"}, "[4]": {"settings": "protein concentration 0.0205 µM"}, "[5]": {"settings": "protein concentration 0.0161125 µM"}, "[6]": {"settings": "protein concentration 0.161125 µM"}, "[7]": {"settings": "protein concentration 0.01925 µM"}, "[8]": {"settings": "protein concentration 0.1925 µM"}, "[9]": {"settings": "protein concentration 0.03125 µM"}, "[10]": {"settings": "protein concentration 0.3125 µM"}},
  "note": "± gives the standard deviation of the averaged measurements.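 Note: secreted proteins added to cultured cells, EdU pulse at the end, nuclei found by Hoechst imaging, EdU status from nuclear versus surrounding ring intensity ratio, PBS as neutral control.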",
  "data": [
    {"substance": "MGCWGQLLVWFGAAGAILCSSPGSQETFLRSSPLPLASPSPRDPKVSAPPSILEPASPLNSPGTEGSWLFSTCGASGRHGPTQTQCDGAYAGTSVVVTVGAAGQLRGVQLWRVPGPGQYLISAYGAAGGKGAKNHLSRAHGVFVSAIFSLGLGESLYILVGQQGEDACPGGSPESQLVCLGESRAVEEHAAMDGSEGVPGSRRWAGGGGGGGGATYVFRVRAGELEPLLVAAGGGGRAYLRPRDRGRTQASPEKLENRSEAPGSGGRGGAAGGGGGWTSRAPSPQAGRSLQEGAEGGQGCSEAWATLGWAAAGGFGGGGGACTAGGGGGGYRGGDASETDNLWADGEDGVSFIHPSSELFLQPLAVTENHGEVEIRRHLNCSHCPLRDCQWQAELQLAECLCPEGMELAVDNVTCMDLHKPPGPLVLMVAVVATSTLSLLMVCGVLILVKQKKWQGLQEMRLPSPELELSKLRTSAIRTAPNPYYCQVGLGPAQSWPLPPGVTEVSPANVTLLRALGHGAFGEVYEGLVIGLPGDSSPLQVAIKTLPELCSPQDELDFLMEALIISKFRHQNIVRCVGLSLRATPRLILLELMSGGDMKSFLRHSRPHLGQPSPLVMRDLLQLAQDIAQGCHYLEENHFIHRDIAARNCLLSCAGPSRVAKIGDFGMARDIYRASYYRRGDRALLPVKWMPPEAFLEGIFTSKTDSWSFGVLLWEIFSLGYMPYPGRTNQEVLDFVVGGGRMDPPRGCPGPVYRIMTQCWQHEPELRPSFASILERLQYCTQDPDVLNSLLPMELGPTPEEEGTSGLGNRSLECLRPPQPQELSPEKLKSWGGSPLGPWLSSGLKPLKSRGLQPQNLWNPTYRS", "values": [
      {"measurement": "percentage of EdU-negative", "setting": "[1]; [3]", "result": "26.78 ± 0.18", "unit": "%"},
      {"measurement": "percentage of EdU-negative", "setting": "[1]; protein concentration 0.225 µM", "result": "28.3 ± 2.3", "unit": "%"},
      {"measurement": "percentage of EdU-negative", "setting": "[2]; [3]", "result": "5.75 ± 1.3", "unit": "%"},
      {"measurement": "percentage of EdU-negative", "setting": "[2]; protein concentration 0.225 µM", "result": "10.5 ± 0.56", "unit": "%"}
    ]},
    {"substance": "MRLSWFRVLTVLSICLSAVATATGAEGKRKLQIGVKKRVDHCPIKSRKGDVLHMHYTGKLEDGTEFDSSLPQNQPFVFSLGTGQVIKGWDQGLLGMCEGEKRKLVIPSELGYGERGAPPKIPGGATLVFEVELLKIERRTEL", "values": [
      {"measurement": "percentage of EdU-negative", "setting": "[1]; [3]", "result": "25.5 ± 0.037", "unit": "%"},
      {"measurement": "percentage of EdU-negative", "setting": "[1]; protein concentration 0.225 µM", "result": "29.219 ± 0.017", "unit": "%"},
      {"measurement": "percentage of EdU-negative", "setting": "[2]; [3]", "result": "4.9 ± 1.4", "unit": "%"},
      {"measurement": "percentage of EdU-negative", "setting": "[2]; protein concentration 0.225 µM", "result": "6.25 ± 0.1", "unit": "%"}
    ]},
    {"substance": "MLPWTALGLALSLRLALARSGAERGPPASAPRGDLMFLLDSSASVSHYEFSRVREFVGQLVAPLPLGTGALRASLVHVGSRPYTEFPFGQHSSGEAAQDAVRASAQRMGDTHTGLALVYAKEQLFAEASGARPGVPKVLVWVTDGGSSDPVGPPMQELKDLGVTVFIVSTGRGNFLELSAAASAPAEKHLHFVDVDDLHIIVQELRGSILDAMRPQQLHATEITSSGFRLAWPPLLTADSGYYVLELVPSAQPGAARRQQLPGNATDWIWAGLDPDTDYDVALVPESNVRLLRPQILRVRTRPGEAGPGASGPESGAGPAPTQLAALPAPEEAGPERIVISHARPRSLRVSWAPALGSAAALGYHVQFGPLRGGEAQRVEVPAGRNCTTLQGLAPGTAYLVTVTAAFRSGRESALSAKACTPDGPRPRPRPVPRAPTPGTASREP [Q6PCB0]", "values": [
      {"measurement": "percentage of EdU-negative", "setting": "[1]; [4]", "result": "26.5 ± 2.2", "unit": "%"},
      {"measurement": "percentage of EdU-negative", "setting": "[1]; protein concentration 0.205 µM", "result": "27.6 ± 0.87", "unit": "%"},
      {"measurement": "percentage of EdU-negative", "setting": "[2]; [4]", "result": "5.62 ± 0.91", "unit": "%"},
      {"measurement": "percentage of EdU-negative", "setting": "[2]; protein concentration 0.205 µM", "result": "5.75 ± 1.2", "unit": "%"}
    ]},
    {"substance": "MQAQQYQQQRRKFAAAFLAFIFILAAVDTAEAGKKEKPEKKVKKSDCGEWQWSVCVPTSGDCGLGTREGTRTGAECKQTMKTQRCKIPCNWKKQFGAECKYQFQAWGECDLNTALKTRTGSLKRALHNAECQKTVTISKPCGKLTKPKPQAESKKKKKEGKKQEKMLD", "values": [
      {"measurement": "percentage of EdU-negative", "setting": "[1]; [5]", "result": "25.8 ± 1.2", "unit": "%"},
      {"measurement": "percentage of EdU-negative", "setting": "[1]; [6]", "result": "30.5 ± 1.6", "unit": "%"},
      {"measurement": "percentage of EdU-negative", "setting": "[2]; [5]", "result": "4.79 ± 0.99", "unit": "%"},
      {"measurement": "percentage of EdU-negative", "setting": "[2]; [6]", "result": "5.12 ± 0.3", "unit": "%"}
    ]},
    {"substance": "MARFGLPALLCTLAVLSAALLAAELKSKSCSEVRRLYVSKGFNKNDAPLHEINGDHLKICPQGSTCCSQEMEEKYSLQSKDDFKSVVSEQCNHLQAVFASRYKKFDEFFKELLENAEKSLNDMFVKTYGHLYMQNSELFKDLFVELKRYYVVGNVNLEEMLNDFWARLLERMFRLVNSQYHFTDEYLECVSKYTEQLKPFGDVPRKLKLQVTRAFVAARTFAQGLAVAGDVVSKVSVVNPTAQCTHALLKMIYCSHCRGLVTVKPCYNYCSNIMRGCLANQGDLDFEWNNFIDAMLMVAERLEGPFNIESVMDPIDVKISDAIMNMQDNSVQVSQKVFQGCGPPKPLPAGRISRSISESAFSARFRPHHPEERPTTAAGTSLDRLVTDVKEKLKQAKKFWSSLPSNVCNDERMAAGNGNEDDCWNGKGKSRYLFAVTGNGLANQGNNPEVQVDTSKPDILILRQIMALRVMTSKMKNAYNGNDVDFFDISDESSGEGSGSGCEYQQCPSEFDYNATDHAGKSANEKADSAGVRPGAQAYLLTVFCILFLVMQREWR", "values": [
      {"measurement": "percentage of EdU-negative", "setting": "[1]; [7]", "result": "26.5 ± 0.51", "unit": "%"},
      {"measurement": "percentage of EdU-negative", "setting": "[1]; [8]", "result": "29.9 ± 0.64", "unit": "%"},
      {"measurement": "percentage of EdU-negative", "setting": "[2]; [7]", "result": "4.9 ± 0.24", "unit": "%"},
      {"measurement": "percentage of EdU-negative", "setting": "[2]; [8]", "result": "4.77 ± 0.82", "unit": "%"}
    ]},
    {"substance": "P32881", "values": [
      {"measurement": "percentage of EdU-negative", "setting": "[1]; [9]", "result": "46 ± 0.63", "unit": "%"},
      {"measurement": "percentage of EdU-negative", "setting": "[1]; [10]", "result": "49.3 ± 0.71", "unit": "%"},
      {"measurement": "percentage of EdU-negative", "setting": "[2]; [9]", "result": "25.9 ± 1.2", "unit": "%"},
      {"measurement": "percentage of EdU-negative", "setting": "[2]; [10]", "result": "30.4 ± 4.1", "unit": "%"}
    ]}
  ]
}
